In general, EC50 refers to the concentration giving half of the maximal effect.

Residue numbers refer to the chain shown, from its start.

The chains are these.
T1: human MASP-3 (construct not stated) (human)
T1 construct: also called MASP-3 antigen
T1 chain: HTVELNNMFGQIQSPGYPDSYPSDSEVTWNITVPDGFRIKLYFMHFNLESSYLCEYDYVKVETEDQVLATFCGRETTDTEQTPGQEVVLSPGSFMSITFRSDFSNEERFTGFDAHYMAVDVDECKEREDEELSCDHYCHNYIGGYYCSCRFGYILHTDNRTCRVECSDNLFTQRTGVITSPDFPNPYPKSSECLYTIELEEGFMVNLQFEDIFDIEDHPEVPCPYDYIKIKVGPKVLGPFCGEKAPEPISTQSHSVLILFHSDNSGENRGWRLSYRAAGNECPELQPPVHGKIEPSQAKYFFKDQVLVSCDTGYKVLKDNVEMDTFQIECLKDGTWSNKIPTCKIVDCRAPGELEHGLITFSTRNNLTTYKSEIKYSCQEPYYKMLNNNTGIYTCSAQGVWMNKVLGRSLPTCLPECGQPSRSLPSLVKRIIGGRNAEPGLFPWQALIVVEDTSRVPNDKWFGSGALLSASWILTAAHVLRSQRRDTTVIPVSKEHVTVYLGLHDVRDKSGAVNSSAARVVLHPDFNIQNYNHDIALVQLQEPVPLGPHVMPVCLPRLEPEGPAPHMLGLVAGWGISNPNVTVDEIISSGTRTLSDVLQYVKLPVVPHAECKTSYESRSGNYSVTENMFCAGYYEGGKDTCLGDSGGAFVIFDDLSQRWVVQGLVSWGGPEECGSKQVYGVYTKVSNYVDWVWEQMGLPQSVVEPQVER

B1: h10D12_45-21 Fab (VH-45 and VL-21) (Fab, V domains shown)
VH: QIQLVQSGSELKKPGASVKVSCKASGYIFTSYGMSWVRQAPGKGLKWMGWINTYSGVPTYADDFKGRFVFSLDTSVRTPYLQISSLKAEDTAVYFCARGGEAMDYWGQGTLVTVSS
VL: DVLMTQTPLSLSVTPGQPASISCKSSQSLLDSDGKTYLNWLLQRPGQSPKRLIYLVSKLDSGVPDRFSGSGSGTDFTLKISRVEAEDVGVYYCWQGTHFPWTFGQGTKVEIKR
notes: Humanized monovalent Fab; also called h10D12_45-21 parental Fab
B2: h10D12_49-21 Fab (VH-49 and VL-21) (Fab, V domains shown)
VH: B1 VH with V93T
VL: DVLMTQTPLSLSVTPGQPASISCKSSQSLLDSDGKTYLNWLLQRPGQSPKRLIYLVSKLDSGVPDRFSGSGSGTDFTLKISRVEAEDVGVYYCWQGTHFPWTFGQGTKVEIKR
notes: Humanized monovalent Fab
B3: h4D5_19-1 Fab (VH-19 and VL-1) (Fab, V domains shown)
VH: QVQLVQSGAEVKKPGASVKVSCKASGYTFTTDDINWVRQAPGQGLEWIGWIYPRDDRTKYNDKFKDRATLTVDTSSNTAYMELSSLRSEDTAVYYCSSLEDTYWGQGTLVTVSS
VL: DIVMTQSPDSLAVSLGERATINCKSSQSLLNSRTRKNYLAWYQQKPGQPPKLLIYWASTRESGVPDRFSGSGSGTDFTLTISSLQAEDVAVYYCKQSYNLYTFGQGTKVEIKR
notes: Humanized monovalent Fab; also called h4D5_19-1 parental Fab
B4: h13B1_10-1 Fab (VH-10 and VL-1) (Fab, V domains shown)
VH: QVQLVQSGAEVKKPGASVKVSCKASGYTFTGKWIEWVRQAPGQGLEWIGEILPGTGSTNYNEKFKGRATFTADSSTSTAYMELSSLRSEDTAVYYCLRSEDVWGQGTLVTVSS
VL: B3 VL with L100I, Y101P
notes: Humanized monovalent Fab; also called h13B1_10-1 parental Fab
B5: h13B1_9-1 Fab (VH-9 and VL-1) (Fab, V domains shown)
VH: B4 VH with N61A, E62Q, K65Q
VL: B3 VL with L100I, Y101P
notes: Humanized monovalent Fab
B6: h4D5_14-1 Fab (VH-14 and VL-1) (Fab, V domains shown)
VH: B3 VH with R67K
VL: B3 VL
notes: Humanized monovalent Fab
B7: h10D12-45-21-GA Fab (VH-45 and VL-21-GA) (Fab, V domains shown)
VH: B1 VH
VL: DVLMTQTPLSLSVTPGQPASISCKSSQSLLDSDAKTYLNWLLQRPGQSPKRLIYLVSKLDSGVPDRFSGSGSGTDFTLKISRVEAEDVGVYYCWQGTHFPWTFGQGTKVEIKR
notes: Humanized monovalent Fab; also called 10D12-GA mutant
B8: h10D12-45-21-DA Fab (VH-45 and VL-21-DA) (Fab, V domains shown)
VH: B1 VH
VL: B7 VL with D33A, A34G
notes: also called 10D12-DA mutant
B9: h10D12-45-21-DE Fab (VH-45 and VL-21-DE) (Fab, V domains shown)
VH: B1 VH
VL: B7 VL with D33E, A34G
notes: also called 10D12-DE mutant
B10: h13B1_10-1-NQ Fab (VH-10 and VL-1-NQ) (Fab, V domains shown)
VH: B4 VH
VL: B3 VL with N31Q, L100I, Y101P
notes: also called 13B1-NQ
B11: h13B1_10-1-NA Fab (VH-10 and VL-1-NA) (Fab, V domains shown)
VH: B4 VH
VL: B3 VL with N31A, L100I, Y101P
notes: Humanized monovalent Fab; also called 13B1-NA
B12: h13B1_10-1-ST Fab (VH-10 and VL-1-ST) (Fab, V domains shown)
VH: B4 VH
VL: B3 VL with S32T, L100I, Y101P
notes: also called 13B1-ST

In one assay the target is T1, human MASP-3 (construct not stated). The assay is described as follows: ELISA, monovalent Fab. (In general: An ELISA detects its analyte on a solid surface through an enzyme-linked reagent.)
As to B1, the response was half-maximal at 0.108 nM (EC50).
The same measure, in the same setting: the value for B2 was 0.115 nM; that for B3 was 0.079 nM; that for B4 was 0.097 nM.
Still for that read-out and setting: the value for B5 was 0.101 nM.
The same measure, in the same setting: in the case of B6 it was 0.085 nM.

A further assay has the same target. The assay is described as follows: ELISA, monovalent Fab. This is another data set of the same source.
B1 yielded an EC50 of 0.108 nM.
On the same count and under the same terms, in the case of B7 it was 0.181 nM; in that of B8, 0.294 nM; in that of B9, 0.326 nM.
On the same count and under the same terms, in the case of B3 it was 0.102 nM.
Same read-out and setting: in the case of B4 it was 0.1 nM; in that of B10, 0.138 nM; in that of B11, 0.105 nM.
On to B12, for which a half-maximal effect (EC50) was put at 0.12 nM.

The record behind these values is patent publication US20200270125A1 (OMEROS, published 2020).
